Reference: US20210115102

ALU30-18, sequence (chain, as listed by the source): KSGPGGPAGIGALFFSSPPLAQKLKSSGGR
ALU30-4, sequence (chain, as listed by the source): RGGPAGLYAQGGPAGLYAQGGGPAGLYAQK
ALU30-16, sequence (chain, as listed by the source): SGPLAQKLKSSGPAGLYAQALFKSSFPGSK
ALU30-13, sequence (chain, as listed by the source): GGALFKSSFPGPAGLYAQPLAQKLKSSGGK
ALU30-14, sequence (chain, as listed by the source): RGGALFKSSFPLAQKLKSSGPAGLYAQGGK
ALU30-6, sequence (chain, as listed by the source): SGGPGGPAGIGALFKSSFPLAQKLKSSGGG
ALU30-5, sequence (chain, as listed by the source): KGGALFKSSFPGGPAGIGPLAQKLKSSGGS
ALU30-12, sequence (chain, as listed by the source): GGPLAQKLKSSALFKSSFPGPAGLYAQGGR
ALU30-8, sequence (chain, as listed by the source): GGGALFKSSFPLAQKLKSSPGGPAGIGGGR
ALU30-9, sequence (chain, as listed by the source): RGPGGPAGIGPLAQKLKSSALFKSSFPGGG
ALU30-7, sequence (chain, as listed by the source): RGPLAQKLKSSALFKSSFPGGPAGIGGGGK
ALU30-10, sequence (chain, as listed by the source): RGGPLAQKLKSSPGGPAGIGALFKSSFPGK
ALU30-17, sequence (chain, as listed by the source): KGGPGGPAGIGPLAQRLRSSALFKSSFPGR
ALU30-1, sequence (chain, as listed by the source): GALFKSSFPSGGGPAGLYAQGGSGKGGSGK
ALU30-19, sequence (chain, as listed by the source): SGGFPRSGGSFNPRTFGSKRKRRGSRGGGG
ALU30-3, sequence (chain, as listed by the source): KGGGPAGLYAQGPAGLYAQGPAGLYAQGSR
ALU30-15, sequence (chain, as listed by the source): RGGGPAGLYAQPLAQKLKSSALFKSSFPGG
ALU30-2, sequence (chain, as listed by the source): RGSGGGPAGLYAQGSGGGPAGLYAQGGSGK
ALU30-11, sequence (chain, as listed by the source): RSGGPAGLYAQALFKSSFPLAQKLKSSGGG

Substance: Thrombin, recombinant human
- 30-mer substrate degradation (MSP-MS) (ALU30-6): the CTSL1_2 motif had lower cleavage activity than did the CTSL1_1 motif (peptides Alu30-18 vs Alu30-6)
- 30-mer substrate degradation (MSP-MS) (ALU30-1): The peptides Alu30-1 and Alu30-3 were the most rapidly cleaved in the library
- 30-mer substrate degradation (MSP-MS) (ALU30-18): the CTSL1_2 motif had lower cleavage activity than did the CTSL1_1 motif (peptides Alu30-18 vs Alu30-6)
- 30-mer substrate degradation (MSP-MS) (ALU30-17): The two alternate ADAM17 motifs were cleaved with similar efficiency (peptides Alu30-17 vs Alu30-9).
- 30-mer substrate degradation (MSP-MS) (ALU30-5): Thrombin showed higher activity than Factor Xa, and it cleaved each of the 30-mer peptides.
- 30-mer substrate degradation (MSP-MS) (ALU30-4): Alu30-4 was also an efficient substrate
- 30-mer substrate degradation (MSP-MS) (ALU30-3): The peptides Alu30-1 and Alu30-3 were the most rapidly cleaved in the library
- 30-mer substrate degradation (MSP-MS) (ALU30-12): the peptides Alu30-12, Alu30-13 and Alu30-15, with MMP14_1 motifs in combination with ADAM17_2 and CTSL1_1, were cleaved at lower efficiency by thrombin
- 30-mer substrate degradation (MSP-MS) (ALU30-15): the peptides Alu30-12, Alu30-13 and Alu30-15, with MMP14_1 motifs in combination with ADAM17_2 and CTSL1_1, were cleaved at lower efficiency by thrombin
- 30-mer substrate degradation (MSP-MS) (ALU30-19): Thrombin showed higher activity than Factor Xa, and it cleaved each of the 30-mer peptides.
- 30-mer substrate degradation (MSP-MS) (ALU30-2): The peptide Alu30-2, bearing two MMP14_1 motifs, was less susceptible to thrombin
- 30-mer substrate degradation (MSP-MS) (ALU30-14): Thrombin showed higher activity than Factor Xa, and it cleaved each of the 30-mer peptides.
- 30-mer substrate degradation (MSP-MS) (ALU30-9): The two alternate ADAM17 motifs were cleaved with similar efficiency (peptides Alu30-17 vs Alu30-9).
- 30-mer substrate degradation (MSP-MS) (ALU30-10): Thrombin showed higher activity than Factor Xa, and it cleaved each of the 30-mer peptides.
- 30-mer substrate degradation (MSP-MS) (ALU30-7): Thrombin showed higher activity than Factor Xa, and it cleaved each of the 30-mer peptides.
- 30-mer substrate degradation (MSP-MS) (ALU30-13): the peptides Alu30-12, Alu30-13 and Alu30-15, with MMP14_1 motifs in combination with ADAM17_2 and CTSL1_1, were cleaved at lower efficiency by thrombin
- 30-mer substrate degradation (MSP-MS) (ALU30-16): Thrombin showed higher activity than Factor Xa, and it cleaved each of the 30-mer peptides.
- 30-mer substrate degradation (MSP-MS) (ALU30-8): Thrombin showed higher activity than Factor Xa, and it cleaved each of the 30-mer peptides.
- 30-mer substrate degradation (MSP-MS) (ALU30-11): Thrombin showed higher activity than Factor Xa, and it cleaved each of the 30-mer peptides.
